Assay results as given in paper PMC6957272, “Activation of a nucleotide-dependent RCK domain requires binding of a cation cofactor to a conserved site” (eLife, 2019).

T1: KtrB (B. subtilis, UniProt O32081 1-445)
T1 construct: KtrB, membrane protein of the B. subtilis KtrAB cation channel; The Strep tag held KtrB on Strep-Tactin beads while KtrA was added to assemble the complex; it was cleaved by thrombin before the size-exclusion step; also called wild-type KtrB; source: E. coli BL21(DE3), extracted with DDM, purified (Strep-Tactin Sepharose, size exclusion); not shown: Strep, N-terminal, cleaved
T1 sequence (looked up): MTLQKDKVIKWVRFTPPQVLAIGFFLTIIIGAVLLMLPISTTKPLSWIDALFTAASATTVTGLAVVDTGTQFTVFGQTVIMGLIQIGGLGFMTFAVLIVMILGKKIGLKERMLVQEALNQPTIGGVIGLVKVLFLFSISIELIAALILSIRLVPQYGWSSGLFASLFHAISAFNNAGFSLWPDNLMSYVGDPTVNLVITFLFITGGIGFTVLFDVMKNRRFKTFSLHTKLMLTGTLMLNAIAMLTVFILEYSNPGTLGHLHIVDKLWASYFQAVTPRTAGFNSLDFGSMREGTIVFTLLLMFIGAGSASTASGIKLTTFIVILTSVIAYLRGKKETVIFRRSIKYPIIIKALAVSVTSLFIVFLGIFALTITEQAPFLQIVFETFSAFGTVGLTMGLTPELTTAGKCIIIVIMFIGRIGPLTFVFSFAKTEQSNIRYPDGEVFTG


Experiments:
[1] = molecular target: the molecule itself; assay: crystal structure; KtrA (WT and mutants) with 1 mM ATP or ADP, sitting-drop vapor diffusion at 20°C; WT-ATP with 5 mM CaCl2
[2] = molecular target: T1, KtrB; assay: SEC; purified KtrA-ATP (or ADP) added to Strep-KtrB on Strep-Tactin beads, 30 min 4°C, washed, eluted with desthiobiotin, tag cleaved by thrombin, then Superdex-S200 in Buffer F (10 mM HEPES, 7 mM NMG pH 8.0, 150 mM KCl, 0.5 mM DDM, 5 mM DTT, 0.2 mM EDTA); settings: both partners purified
[3] = molecular target: the molecule itself; assay: SEC; KtrA alone, bound to ATP or ADP; Superdex-S200, Buffer C (50 mM Tris-HCl pH 7.5, 150 mM KCl, 5 mM DTT, 0.2 mM EDTA)

binding result [2] | Binder | stoichiometry N [1] | stoichiometry N [3]
binds | KtrA R16A mutant (natural protein, B. subtilis, KtrA of B. subtilis with R16A; tag-less; source: E. coli BL21(DE3), purified (anion exchange, ATP-agarose, size exclusion)) MGRIKNKQFAVIGLGAFGGSICKELHRMGHEVLAVDINEEKVNAYASYATHAVIANATEENELLSLGIRNFEYVIVAIGANIQASTLTTLLLKELDIPNIWVKAQNYYHHKVLEKIGADRIIHPEKDMGVKIAQSLSDENVLNYIDLSDEYSIVELLATRKLDSKSIIDLNVRAKYGCTILAIKHHGDICLSPAPEDIIREQDCLVIMGHKKDIKRFENEGM | 8 | –
binds | KtrA E125Q mutant (natural protein, B. subtilis, KtrA of B. subtilis with E125Q; tag-less; source: E. coli BL21(DE3), purified (anion exchange, ATP-agarose, size exclusion)) MGRIKNKQFAVIGLGRFGGSICKELHRMGHEVLAVDINEEKVNAYASYATHAVIANATEENELLSLGIRNFEYVIVAIGANIQASTLTTLLLKELDIPNIWVKAQNYYHHKVLEKIGADRIIHPQKDMGVKIAQSLSDENVLNYIDLSDEYSIVELLATRKLDSKSIIDLNVRAKYGCTILAIKHHGDICLSPAPEDIIREQDCLVIMGHKKDIKRFENEGM | 8 | –

The remaining lines, values behind:

Binder | binding result [2] | stoichiometry N [1] | stoichiometry N [3]
wild-type KtrA (natural protein, B. subtilis, KtrA, RCK domain protein of the B. subtilis KtrAB cation channel; tag-less; Tag-less, cloned in a modified pET-24d vector; eluted from ATP-agarose with ATP or ADP and kept with 1 mM nucleotide; also called KtrAWT; WT; source: E. coli BL21(DE3), purified (anion exchange, ATP-agarose, size exclusion)) MGRIKNKQFAVIGLGRFGGSICKELHRMGHEVLAVDINEEKVNAYASYATHAVIANATEENELLSLGIRNFEYVIVAIGANIQASTLTTLLLKELDIPNIWVKAQNYYHHKVLEKIGADRIIHPEKDMGVKIAQSLSDENVLNYIDLSDEYSIVELLATRKLDSKSIIDLNVRAKYGCTILAIKHHGDICLSPAPEDIIREQDCLVIMGHKKDIKRFENEGM | binds | 8 | –
KtrA R16K mutant (natural protein, B. subtilis, KtrA of B. subtilis with R16K; tag-less; source: E. coli BL21(DE3), purified (anion exchange, ATP-agarose, size exclusion)) MGRIKNKQFAVIGLGKFGGSICKELHRMGHEVLAVDINEEKVNAYASYATHAVIANATEENELLSLGIRNFEYVIVAIGANIQASTLTTLLLKELDIPNIWVKAQNYYHHKVLEKIGADRIIHPEKDMGVKIAQSLSDENVLNYIDLSDEYSIVELLATRKLDSKSIIDLNVRAKYGCTILAIKHHGDICLSPAPEDIIREQDCLVIMGHKKDIKRFENEGM | – | 8 | –
KtrA A80P mutant (natural protein, B. subtilis, KtrA of B. subtilis with A80P; tag-less; source: E. coli BL21(DE3), purified (anion exchange, ATP-agarose, size exclusion)) MGRIKNKQFAVIGLGRFGGSICKELHRMGHEVLAVDINEEKVNAYASYATHAVIANATEENELLSLGIRNFEYVIVAIGPNIQASTLTTLLLKELDIPNIWVKAQNYYHHKVLEKIGADRIIHPEKDMGVKIAQSLSDENVLNYIDLSDEYSIVELLATRKLDSKSIIDLNVRAKYGCTILAIKHHGDICLSPAPEDIIREQDCLVIMGHKKDIKRFENEGM | binds | – | 8
